Source: paper PMC5414174, “DNA replication licensing factor Cdc6 and Plk4 kinase antagonistically regulate centrosome duplication via Sas-6” (Nature Communications, 2017)

Target: T1, GST-tagged Plk4 (human, UniProt O00444 1-970)
T1 construct: human Plk4, cloned from a cDNA library by PCR into pGEX 4T-1; also called GST-Plk4; source: E. coli BL21, purified (glutathione Sepharose 4B); not shown: GST, N-terminal, kept
T1 sequence (looked up): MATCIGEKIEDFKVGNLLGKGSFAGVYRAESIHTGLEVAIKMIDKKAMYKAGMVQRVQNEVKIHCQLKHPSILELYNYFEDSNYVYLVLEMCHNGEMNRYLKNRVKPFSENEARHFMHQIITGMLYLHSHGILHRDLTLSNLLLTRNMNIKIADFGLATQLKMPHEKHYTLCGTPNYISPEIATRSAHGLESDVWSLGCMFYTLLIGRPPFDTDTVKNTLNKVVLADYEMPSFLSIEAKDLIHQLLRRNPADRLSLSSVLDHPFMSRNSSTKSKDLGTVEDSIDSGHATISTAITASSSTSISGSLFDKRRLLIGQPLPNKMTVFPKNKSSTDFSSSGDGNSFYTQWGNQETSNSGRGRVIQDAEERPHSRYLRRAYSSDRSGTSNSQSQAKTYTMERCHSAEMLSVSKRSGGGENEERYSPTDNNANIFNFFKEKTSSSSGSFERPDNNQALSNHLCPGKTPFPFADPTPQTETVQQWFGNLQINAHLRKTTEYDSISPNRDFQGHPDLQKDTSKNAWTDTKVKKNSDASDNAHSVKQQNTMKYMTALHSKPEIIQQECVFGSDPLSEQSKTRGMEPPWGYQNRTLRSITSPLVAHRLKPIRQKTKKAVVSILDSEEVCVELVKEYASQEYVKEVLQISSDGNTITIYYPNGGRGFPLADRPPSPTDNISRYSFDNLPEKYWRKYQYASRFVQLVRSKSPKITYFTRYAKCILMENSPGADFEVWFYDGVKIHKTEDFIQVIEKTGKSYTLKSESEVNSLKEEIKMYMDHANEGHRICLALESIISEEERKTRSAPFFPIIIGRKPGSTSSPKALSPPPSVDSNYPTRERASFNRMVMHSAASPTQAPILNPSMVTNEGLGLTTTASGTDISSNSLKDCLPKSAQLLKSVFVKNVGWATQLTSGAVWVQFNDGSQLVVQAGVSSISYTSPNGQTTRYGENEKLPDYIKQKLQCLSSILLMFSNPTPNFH
Experiment: pull-down; Sepharose beads coupled with purified GST-Plk4 incubated with purified His-Cdc6; western blot with His antibody
Conditions: both partners purified

B1: His-tagged Cdc6 (purified) (natural protein, human, UniProt Q99741 1-560, looked up)
chain: MPQTRSQAQATISFPKRKLSRALNKAKNSSDAKLEPTNVQTVTCSPRVKALPLSPRKRLGDDNLCNTPHLPPCSPPKQGKKENGPPHSHTLKGRRLVFDNQLTIKSPSKRELAKVHQNKILSSVRKSQEITTNSEQRCPLKKESACVRLFKQEGTCYQQAKLVLNTAVPDRLPAREREMDVIRNFLREHICGKKAGSLYLSGAPGTGKTACLSRILQDLKKELKGFKTIMLNCMSLRTAQAVFPAIAQEICQEEVSRPAGKDMMRKLEKHMTAEKGPMIVLVLDEMDQLDSKGQDVLYTLFEWPWLSNSHLVLIGIANTLDLTDRILPRLQAREKCKPQLLNFPPYTRNQIVTILQDRLNQVSRDQVLDNAAVQFCARKVSAVSGDVRKALDVCRRAIEIVESDVKSQTILKPLSECKSPSEPLIPKRVGLIHISQVISEVDGNRMTLSQEGAQDSFPLQQKILVCSLMLLIRQLKIKEVTLGKLYEAYSKVCRKQQVAAVDQSECLSLSGLLEARGILGLKRNKETRLTKVFFKIEEKEIEHALKDKALIGNILATGLP
notes: human Cdc6; also called His-Cdc6; source: E. coli BL21, purified (His60 Ni Superflow resin)
- binding result: binds
